Results on 14 molecules are retold here after US20160108128A1 (CANCER RESEARCH TECHNOLOGY, published 2016).

The labels stand for the following.
B1: J1-65D (antibody, V domains shown)
VH: QVQLQQPGAELVRPGASVKLSCKALGYTFTDYEMHWVKETPVHGLEWIGAIQPGGGGTAYNQKFKGKATLTADKSSSTAYMELSSLTSEDSAVYYCTRRGYDDYPFAYWGQGTLVTVSS
VL: DIQLTQSPASLSASVGETVTITCRASGNIHNYLAWYQQKQGKSPQLLVYNAKTLADDIPSRFSGSGSGTQYSLKINSLQPEDFGSYYCQHFWSAPWTFGGGTKLEIK
B2: J1-183D (antibody, V domains shown)
VH: QVQLQQPGTELVRPGVSVKISCKVSGYAFTDYAIHWIMQSHAKSLEWIGIINTYYGDSKYNQKFKDKATMTVDKSSNTAYMELARLTSEDSAIYYCARGYDGFAYWGQGTLVTVSS
VL: DIQLTQSPASLSASVGETVTFTCRTSENIYSYLTWYQQKQGKSPQLLVYNAKILAAGVPSRFSGYGSGTQFSLKINSLQPEDFGTYYCQHHYDIPWTFGGGTKLEIK
B3: J1-65D variant 6 (antibody, human IgG1, V domains shown)
VH: QVQLVQSGAELKKPGSSVKVSCKASGYTFTDYEMHWVRQAPGQGLEWMGAIQPGGGGTAYAQKFKGRVTLTADKSTSTAYMELSSLRSEDTAVYYCTRRGYDDYPFAYWGQGTLVTVSS
VL: DIQMTQSPSSLSASVGDRVTITCRASGNIHNYLAWYQQKPGKAPKLLIYNAKTLADAVPSRFSGSGSGTDYTLTISSLQPEDFATYYCQHFWSAPWTFGGGTKLEIKR
notes: human IgG1; also called J1-65DV6; V6
B4: J1-65D variant 10 (antibody, human IgG1, V domains shown)
VH: B3 VH
VL: B3 VL with G100Q
notes: human IgG1; also called J1-65DV10; V10
B5: J1-65D variant 3 (antibody, human IgG1, V domains shown)
VH: B3 VH with L11V, K65Q
VL: B3 VL with A57D
notes: human IgG1; also called J1-65DV3; V3
B6: J1-65D variant 7 (antibody, human IgG1, V domains shown)
VH: B3 VH with L11V, K65Q
VL: B3 VL
notes: human IgG1; also called J1-65DV7; V7
B7: J1-65D variant 2 (antibody, human IgG1, V domains shown)
VH: B3 VH
VL: B3 VL with A57D
notes: human IgG1; also called J1-65DV2; V2
B8: J1-65D variant 12 (antibody, human IgG1, V domains shown)
VH: B3 VH with L11V, K65Q, L70I
VL: B3 VL with G100Q
notes: human IgG1; also called J1-65DV12; V12
B9: J1-65D variant 4 (antibody, human IgG1, V domains shown)
VH: B3 VH with L11V, K65Q, L70I
VL: B3 VL with A57D
notes: human IgG1; also called J1-65DV4; V4
B10: J1-65D variant 1 (antibody, human IgG1, V domains shown)
VH: B3 VH with A61N
VL: B3 VL with A57D
notes: human IgG1; also called J1-65DV1; V1
B11: J1-65D variant 11 (antibody, human IgG1, V domains shown)
VH: B3 VH with L11V, K65Q
VL: B3 VL with G100Q
notes: human IgG1; also called J1-65DV11; V11
B12: J1-65D variant 8 (antibody, human IgG1, V domains shown)
VH: B3 VH with L11V, K65Q, L70I
VL: B3 VL
notes: human IgG1; also called J1-65DV8; V8
B13: J1-65D variant 5 (antibody, human IgG1, V domains shown)
VH: B3 VH with A61N
VL: B3 VL
notes: human IgG1; also called J1-65DV5; V5
B14: J1-65D variant 9 (antibody, human IgG1, V domains shown)
VH: B3 VH with A61N
VL: B3 VL with G100Q
notes: human IgG1; also called J1-65DV9; V9

Numbering of substitutions follows the chain as printed.

T1 sequence (P78504 34-1218): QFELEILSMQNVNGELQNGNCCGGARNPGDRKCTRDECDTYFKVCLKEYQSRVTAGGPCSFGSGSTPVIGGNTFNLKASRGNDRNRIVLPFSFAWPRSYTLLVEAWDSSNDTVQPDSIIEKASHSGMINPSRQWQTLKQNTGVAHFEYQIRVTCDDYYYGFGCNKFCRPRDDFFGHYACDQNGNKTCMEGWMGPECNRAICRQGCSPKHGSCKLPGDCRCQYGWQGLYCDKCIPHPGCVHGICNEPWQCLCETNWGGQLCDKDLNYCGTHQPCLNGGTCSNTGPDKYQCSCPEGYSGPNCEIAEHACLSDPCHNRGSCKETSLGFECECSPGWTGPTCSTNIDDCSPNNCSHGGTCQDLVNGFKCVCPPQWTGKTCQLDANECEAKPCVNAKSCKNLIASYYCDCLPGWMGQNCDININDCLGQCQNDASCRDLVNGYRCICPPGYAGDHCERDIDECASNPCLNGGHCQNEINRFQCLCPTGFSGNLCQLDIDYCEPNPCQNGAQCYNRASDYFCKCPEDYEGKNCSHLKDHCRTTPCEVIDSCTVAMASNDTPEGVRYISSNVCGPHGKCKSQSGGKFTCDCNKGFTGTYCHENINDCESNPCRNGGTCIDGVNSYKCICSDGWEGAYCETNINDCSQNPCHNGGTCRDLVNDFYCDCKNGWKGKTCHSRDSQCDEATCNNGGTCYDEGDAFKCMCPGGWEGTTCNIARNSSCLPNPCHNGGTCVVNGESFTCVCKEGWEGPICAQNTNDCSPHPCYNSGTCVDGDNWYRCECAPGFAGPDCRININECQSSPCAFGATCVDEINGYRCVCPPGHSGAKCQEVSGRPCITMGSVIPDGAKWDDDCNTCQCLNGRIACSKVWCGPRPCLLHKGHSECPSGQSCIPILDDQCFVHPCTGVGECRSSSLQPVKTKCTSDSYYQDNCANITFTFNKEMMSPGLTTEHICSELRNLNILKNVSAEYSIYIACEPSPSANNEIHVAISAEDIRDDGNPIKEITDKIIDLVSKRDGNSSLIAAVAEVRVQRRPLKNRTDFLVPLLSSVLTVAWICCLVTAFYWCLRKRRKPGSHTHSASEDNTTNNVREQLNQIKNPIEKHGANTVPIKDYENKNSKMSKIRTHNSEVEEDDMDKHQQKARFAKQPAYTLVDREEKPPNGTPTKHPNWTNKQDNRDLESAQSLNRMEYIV
T6 sequence (Q9QXX0 34-1218, one chain of several): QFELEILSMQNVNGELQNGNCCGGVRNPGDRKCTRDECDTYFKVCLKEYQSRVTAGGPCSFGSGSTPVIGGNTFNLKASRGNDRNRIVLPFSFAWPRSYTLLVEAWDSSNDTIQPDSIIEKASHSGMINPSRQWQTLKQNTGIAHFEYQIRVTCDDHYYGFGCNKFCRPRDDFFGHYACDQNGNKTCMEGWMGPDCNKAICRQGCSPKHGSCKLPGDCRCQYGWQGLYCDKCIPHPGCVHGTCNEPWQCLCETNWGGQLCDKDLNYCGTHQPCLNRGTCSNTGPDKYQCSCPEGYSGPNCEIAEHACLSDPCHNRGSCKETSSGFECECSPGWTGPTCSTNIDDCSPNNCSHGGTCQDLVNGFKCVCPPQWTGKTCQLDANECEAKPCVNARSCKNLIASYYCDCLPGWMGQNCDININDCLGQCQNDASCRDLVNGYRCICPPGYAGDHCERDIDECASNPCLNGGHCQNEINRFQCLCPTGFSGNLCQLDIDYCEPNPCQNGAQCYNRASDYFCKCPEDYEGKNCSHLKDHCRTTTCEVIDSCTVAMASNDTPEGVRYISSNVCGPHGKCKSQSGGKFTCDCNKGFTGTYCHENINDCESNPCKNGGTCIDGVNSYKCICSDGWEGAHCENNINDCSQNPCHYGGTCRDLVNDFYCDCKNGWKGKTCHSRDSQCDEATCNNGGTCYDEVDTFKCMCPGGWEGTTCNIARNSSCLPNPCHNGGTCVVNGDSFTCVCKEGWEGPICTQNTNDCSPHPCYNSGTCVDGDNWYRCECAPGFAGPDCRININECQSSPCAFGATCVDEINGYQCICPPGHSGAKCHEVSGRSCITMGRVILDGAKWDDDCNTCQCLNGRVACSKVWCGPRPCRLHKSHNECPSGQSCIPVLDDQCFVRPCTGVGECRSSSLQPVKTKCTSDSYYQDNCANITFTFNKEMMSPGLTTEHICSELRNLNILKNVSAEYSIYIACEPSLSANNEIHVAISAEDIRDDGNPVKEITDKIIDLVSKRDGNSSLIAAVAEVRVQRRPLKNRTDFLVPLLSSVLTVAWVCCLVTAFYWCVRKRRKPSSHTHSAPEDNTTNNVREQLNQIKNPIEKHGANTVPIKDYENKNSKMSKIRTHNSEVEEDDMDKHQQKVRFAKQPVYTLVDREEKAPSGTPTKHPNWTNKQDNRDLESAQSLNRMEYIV
T3 sequence (Q9Y219 24-1238): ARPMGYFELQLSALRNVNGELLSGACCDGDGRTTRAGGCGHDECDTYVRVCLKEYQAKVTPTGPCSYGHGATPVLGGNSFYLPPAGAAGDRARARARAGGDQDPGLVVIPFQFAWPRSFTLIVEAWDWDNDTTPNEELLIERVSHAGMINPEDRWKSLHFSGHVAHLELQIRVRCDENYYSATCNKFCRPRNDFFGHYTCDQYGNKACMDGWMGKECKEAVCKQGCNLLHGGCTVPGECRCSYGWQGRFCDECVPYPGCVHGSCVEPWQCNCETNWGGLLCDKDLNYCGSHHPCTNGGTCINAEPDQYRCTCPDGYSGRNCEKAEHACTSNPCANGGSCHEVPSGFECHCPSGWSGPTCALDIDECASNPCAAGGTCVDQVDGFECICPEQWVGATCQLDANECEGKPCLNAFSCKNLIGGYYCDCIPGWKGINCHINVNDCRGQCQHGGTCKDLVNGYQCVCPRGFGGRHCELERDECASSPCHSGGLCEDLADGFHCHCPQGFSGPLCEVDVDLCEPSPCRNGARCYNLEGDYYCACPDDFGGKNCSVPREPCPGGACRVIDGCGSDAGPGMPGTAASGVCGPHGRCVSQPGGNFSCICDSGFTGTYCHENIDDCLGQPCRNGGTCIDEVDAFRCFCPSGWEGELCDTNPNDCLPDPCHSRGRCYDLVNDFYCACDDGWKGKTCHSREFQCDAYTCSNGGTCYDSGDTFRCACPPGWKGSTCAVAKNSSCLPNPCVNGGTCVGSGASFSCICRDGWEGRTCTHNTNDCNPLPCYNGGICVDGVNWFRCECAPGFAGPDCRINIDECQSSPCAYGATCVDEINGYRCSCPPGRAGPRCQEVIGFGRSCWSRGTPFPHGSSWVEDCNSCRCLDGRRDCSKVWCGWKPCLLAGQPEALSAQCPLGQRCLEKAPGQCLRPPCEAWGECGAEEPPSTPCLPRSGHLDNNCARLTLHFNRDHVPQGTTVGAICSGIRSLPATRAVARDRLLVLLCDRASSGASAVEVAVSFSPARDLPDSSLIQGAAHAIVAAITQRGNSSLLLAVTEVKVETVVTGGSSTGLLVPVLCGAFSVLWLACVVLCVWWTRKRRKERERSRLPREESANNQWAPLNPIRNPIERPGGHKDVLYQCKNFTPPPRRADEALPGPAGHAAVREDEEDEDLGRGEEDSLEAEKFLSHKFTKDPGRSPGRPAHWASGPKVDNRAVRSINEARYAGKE

The first assay has as its target T1, human Jagged 1, full length, on cells (human, UniProt P78504 34-1218).
T1 construct: whole, on cells; the cell is named under assay; also called hJ1; J1
As to the kind of experiment: FACS competition, HEK293-J1 cells, against biotinylated J1-65D 1.0 µg/ml.
Take B1: the “IC50 (read off the curve)” value was approximately 1 µg/mL.

Another assay addresses T1, human Jagged 1, full length, on cells. The assay is described as follows: FACS competition, HEK293-J1 cells, against biotinylated J1-187B 1.0 µg/ml.
Regarding B1, the “IC50 (read off the curve)” value was approximately 0.5 µg/mL.

In another assay the target is T2, J1 DSL-EGF3 soluble recombinant protein (human Jagged 1 amino acids 185-335) (human, UniProt P78504 185-335).
T2 construct: biotinylated in the CD46 ELISA; also called J1-DE3; DSL+EGF1-3
T2 sequence (P78504 185-335, form in doubt): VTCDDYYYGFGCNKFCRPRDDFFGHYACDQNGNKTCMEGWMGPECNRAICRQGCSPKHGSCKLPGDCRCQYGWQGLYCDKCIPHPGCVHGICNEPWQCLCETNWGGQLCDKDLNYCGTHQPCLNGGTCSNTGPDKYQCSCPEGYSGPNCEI
As to the kind of experiment: affinity to the immunogen J1-DE3; method not stated.
B2: the Kd stood at 0.58 nM.
On to B3, for which the Kd was determined as 0.223 nM.
With B4, the Kd worked out at 0.293 nM.
For B5, the Kd amounted to 0.158 nM.
For B6, the Kd is 0.151 nM.
On to B7, for which the dissociation constant Kd is 0.165 nM.
Regarding B8, the Kd is 0.0806 nM.
With B9, the Kd turned out to be 0.0949 nM.
For B10, the Kd was 0.15 nM.
As to B11, the Kd was 0.243 nM.
On to B12, for which the Kd was found to be 0.0717 nM.
For B13, the dissociation constant (Kd) stood at 0.0446 nM.
For the molecule B14, the Kd came to 0.0139 nM.
B1: the Kd is 0.13 nM.

For another assay, the target named is T1, human Jagged 1, full length, on cells. The assay is described as follows: FACS competition, HEK293-J1 cells, against biotinylated J1-156A 1.0 µg/ml.
On to B1, for which the “IC50 (read off the curve)” value was approximately 0.6 µg/mL.

A further assay concerns the target T3, human Jagged 2, full length, on HEK293 cells (human, UniProt Q9Y219 24-1238).
T3 construct: whole, on cells; also called J2; hJ2
The assay is described as follows: FACS, 293-JAG2 cells, anti-human-APC. On the procedure:
FIG. 18. […] Samples were analysed by FACS and the mean fluorescence intensities (MFI) were plotted. […] With the exception of J1-65D variants 13-16, all the remaining antibodies effectively bound the human J1 protein.
(§1) HEK293 cells transfected with human J1, J2 or FLAG-EGFP-tagged DSL-EGF3 constructs, B16F10 cells transfected with human DLL4 or mouse J1, and human cancer cell lines, were stained with either purified anti-J1 antibodies at 10 μg/ml diluted in FACS wash buffer (2% FBS in PBS+0.1% sodium azide) or neat hybridoma supernatants followed by a allophycocyanin (APC)-conjugated secondary antibody at 1:200 dilution: for murine primary antibodies, used goat anti-mouse-APC (eBioscience); for humanised and chimeric antibodies used goat anti-human IgG (H+L) secondary antibody (Jackson ImmunoResearch Laboratories). After washing, samples were fixed with 1% paraformaldehyde (in PBS) and acquired with a FACSCalibur. FACS data were analysed with FlowJo software (TreeStar Inc.).
As for B3, the binding result is on record as “no binding (tested: 10 ug/ml)”.
On the same count and under the same terms, the same measure for B4: “no binding (tested: 10 ug/ml)”; for B5: “no binding (tested: 10 ug/ml)”.
Regarding B6, the binding result is “no binding (tested: 10 ug/ml)”.
As for B7, the binding result is “no binding (tested: 10 ug/ml)”.
For B8, the binding result is on record as “no binding (tested: 10 ug/ml)”.
Take B9: the binding result is “no binding (tested: 10 ug/ml)”.
With B10, the binding result is on record as “no binding (tested: 10 ug/ml)”.
B11: the binding result is “no binding (tested: 10 ug/ml)”.
With B12, the binding result is “no binding (tested: 10 ug/ml)”.
As to B13, the binding result was “no binding (tested: 10 ug/ml)”.
Still for that read-out and setting: the value for B14 was “no binding (tested: 10 ug/ml)”.

A further assay concerns the target T4, J1-NE12 (human Jagged 1, entire N-terminus to EGF12) (human, UniProt P78504 32-703).
T4 construct: domain: entire N-terminus to EGF12; eukaryotically expressed soluble form used in SPR
The assay is described as follows: SPR (Biacore), mAb immobilised, J1 protein in flow.
As to B2, the Kd was 4.4 nM.
The molecule B1 gave a dissociation constant (Kd) of 3 nM.

A further assay deals with T2, J1 DSL-EGF3 soluble recombinant protein …. As to the kind of experiment: SPR (Biacore), mAb immobilised, J1 protein in flow.
Take B2: the Kd came to 4.9 nM.
On the same count and under the same terms, the value for B1 was 9.7 nM.

The next assay concerns the target T5, J1-NE3 (human Jagged 1, entire N-terminus until the third EGF domain) (human, UniProt P78504 32-335, limits assumed).
T5 construct: domain: entire N-terminus until the third EGF domain; eukaryotically expressed soluble form used in SPR
The assay is described as follows: SPR (Biacore), mAb immobilised, J1 protein in flow.
In turn, B2 gave a Kd of 5.2 nM.
In turn, B1 showed a Kd of 3.3 nM.

The next assay has as its target T6, murine Jagged 1, full length, on B16F10 cells (mouse, UniProt Q9QXX0 34-1218).
T6 construct: whole, on cells; GFP co-expressed; also called mJ1; B16F10-mJAG1
As to the kind of experiment: FACS, B16F10-mJAG1 cells, anti-human-APC. On the procedure: FIG. 19. […] Samples were analysed by FACS and the mean fluorescence intensities (MFI) were plotted.
as §1
With B3, the binding result is reported as “no binding (tested: 10 ug/ml)”.
B4: the binding result was “no binding (tested: 10 ug/ml)”.
Same read-out and setting: the value for B5 was “no binding (tested: 10 ug/ml)”; that for B6 was “no binding (tested: 10 ug/ml)”.
Regarding B7, the binding result is “no binding (tested: 10 ug/ml)”.
B8: the binding result was “no binding (tested: 10 ug/ml)”.
In the case of B9, the binding result is listed as “no binding (tested: 10 ug/ml)”.
The same measure, in the same setting: the same measure for B10: “no binding (tested: 10 ug/ml)”; for B11: “no binding (tested: 10 ug/ml)”.
Regarding B12, the binding result is listed as “no binding (tested: 10 ug/ml)”.
Regarding B13, the binding result was “no binding (tested: 10 ug/ml)”.
As for B14, the binding result is recorded as “no binding (tested: 10 ug/ml)”.
